Experiments:
Experiment in all cases: cell-based or functional assay
[1] = biological target: aMLV envelope protein on pseudovirus (negative control virus) (aMLV)
[2] = biological target: HIV-1 92TH021 Env (HIV-1)
HIV-1 CMU02 Env (HIV-1) = biological target: HIV-1 CMU02 Env (HIV-1)
[3] = biological target: HIV-1 92RW020 Env (HIV-1)
[4] = biological target: HIV-1 MGRM-C-028 Env (HIV-1)
HIV-1 NL43 Env (HIV-1) = biological target: HIV-1 NL43 Env (HIV-1)
[5] = biological target: HIV-1 92UG024 Env (HIV-1)
aMLV envelope (aMLV) = biological target: aMLV envelope (aMLV)
[6] = biological target: HIV-1 92UG005 Env (HIV-1)
[7] = biological target: HIV-1 93IN905 Env (HIV-1)
[8] = biological target: HIV-1 MGRM-A-010 Env (pseudovirus) (HIV-1 isolate MGRM-A-010 (clade A))
[9] = biological target: aMLV envelope (control pseudovirus) (aMLV)
[10] = biological target: HIV-1 MGRM-D-001 Env (pseudovirus) (HIV-1 isolate MGRM-D-001 (clade D))
[11] = biological target: HIV-1 JRFL Env (pseudovirus) (HIV-1 isolate JRFL (clade B))
[12] = biological target: HIV-1 92RW020 Env (pseudovirus) (HIV-1 isolate 92RW020 (clade A))
[13] = biological target: HIV-1 NL43 envelope glycoprotein (Env) on pseudovirus (HIV-1 isolate NL43 (clade B))
[14] = biological target: HIV-1 94UG103 envelope glycoprotein (Env) on pseudovirus (HIV-1 isolate 94UG103 (clade A))
[15] = biological target: HIV-1 92RW020 envelope glycoprotein (Env) on pseudovirus (HIV-1 isolate 92RW020 (clade A))
[16] = biological target: HIV-1 APV6 envelope glycoprotein (Env) on pseudovirus (HIV-1 isolate APV6 (clade B))
[17] = biological target: HIV-1 MGRM-C-028 envelope glycoprotein (Env) on pseudovirus (HIV-1 isolate MGRM-C-028 (clade C))
[18] = biological target: HIV-1 Env of pseudovirus MGRM-AG-012 (subtype AG) (HIV-1)
[19] = biological target: HIV-1 Env of isolate MGRM-F1-006 (HIV-1)
[20] = biological target: HIV-1 Env of isolate MGRM-F1-008 (HIV-1)
[21] = biological target: HIV-1 JR-FL Env E168K (HIV-1 JR-FL)
[22] = biological target: HIV-1 Env of isolate DU156 (clade C pseudovirus) (HIV-1)
[23] = biological target: HIV-1 Env of isolate CAAN (clade B pseudovirus) (HIV-1)
[24] = biological target: HIV-1 Env of isolate ZM233 (clade C pseudovirus) (HIV-1)
[25] = biological target: HIV-1 Env of isolate THRO.18 (clade B pseudovirus) (HIV-1)
[26] = biological target: HIV-1 Env of isolate MG RM-D-029 (clade D), on pseudovirus (HIV-1)
[27] = biological target: HIV-1 Env of pseudovirus MGRM-A-006 (subtype A) (HIV-1)
[28] = biological target: HIV-1 Env of isolate MG RM-D-018 (clade D), on pseudovirus (HIV-1)
[29] = biological target: HIV-1 Env of isolate MGRM-Chronic-B-003 (HIV-1)
[30] = biological target: HIV-1 Env of isolate MGRM-Chronic-B-011 (HIV-1)
[31] = biological target: HIV-1 Env of pseudovirus MGRM-A-002 (subtype A) (HIV-1)

Chain of 1443_C16 (PG16) (TCN-116) (antibody) (VH): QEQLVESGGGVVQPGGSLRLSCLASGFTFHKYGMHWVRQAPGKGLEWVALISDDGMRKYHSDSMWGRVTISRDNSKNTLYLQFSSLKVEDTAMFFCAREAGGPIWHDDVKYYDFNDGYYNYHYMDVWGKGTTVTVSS
Chain of 1443_C16 (PG16) (TCN-116) (antibody) (VL): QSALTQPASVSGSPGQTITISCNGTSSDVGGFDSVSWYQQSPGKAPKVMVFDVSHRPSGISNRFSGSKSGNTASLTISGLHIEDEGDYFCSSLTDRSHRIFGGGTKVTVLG

For 4858_P08 (PGT-123) (antibody), the neutralization IC50 [1] was over 10 µg/mL, the neutralization IC80 [1] was over 10 µg/mL and the neutralization IC90 [1] was over 10 µg/mL. For the same substance, the neutralization IC95 [1] was over 10 µg/mL.

Work on 4877_D15 (PGT-122) (antibody) yielded a Neutralization by PGT-122, IC50 [2] of over 10 µg/mL, a Neutralization by PGT-122, IC80 [2] of over 10 µg/mL and a Neutralization by PGT-122, IC90 [2] of over 10 µg/mL. It also gave a Neutralization by PGT-122, IC95 [2] of over 10 µg/mL, a Neutralization by PGT-122, IC50 (HIV-1 CMU02 Env (HIV-1)) of over 10 µg/mL and a Neutralization by PGT-122, IC80 (HIV-1 CMU02 Env (HIV-1)) of over 10 µg/mL. For the same substance, the Neutralization by PGT-122, IC90 (HIV-1 CMU02 Env (HIV-1)) was over 10 µg/mL, the Neutralization by PGT-122, IC95 (HIV-1 CMU02 Env (HIV-1)) was over 10 µg/mL and the Neutralization by PGT-122, IC50 [3] was 0.0072 µg/mL. For the same substance, the Neutralization by PGT-122, IC80 [3] was 0.0407 µg/mL, the Neutralization by PGT-122, IC90 [3] was 0.113 µg/mL and the Neutralization by PGT-122, IC95 [3] was 0.289 µg/mL. For the same substance, the Neutralization by PGT-122, IC50 [4] was 2.06 µg/mL, the Neutralization by PGT-122, IC80 [4] was over 10 µg/mL and the Neutralization by PGT-122, IC90 [4] was over 10 µg/mL. It also gave a Neutralization by PGT-122, IC95 [4] of over 10 µg/mL, a Neutralization by PGT-122, IC50 (HIV-1 NL43 Env (HIV-1)) of over 10 µg/mL and a Neutralization by PGT-122, IC80 (HIV-1 NL43 Env (HIV-1)) of over 10 µg/mL. The Neutralization by PGT-122, IC90 (HIV-1 NL43 Env (HIV-1)) was over 10 µg/mL, the Neutralization by PGT-122, IC95 (HIV-1 NL43 Env (HIV-1)) was over 10 µg/mL and the Neutralization by PGT-122, IC50 [5] was over 10 µg/mL. For the same substance, the Neutralization by PGT-122, IC80 [5] was over 10 µg/mL, the Neutralization by PGT-122, IC90 [5] was over 10 µg/mL and the Neutralization by PGT-122, IC95 [5] was over 10 µg/mL. The Neutralization by PGT-122, IC50 (aMLV envelope (aMLV)) was over 10 µg/mL, the Neutralization by PGT-122, IC80 (aMLV envelope (aMLV)) was over 10 µg/mL and the Neutralization by PGT-122, IC90 (aMLV envelope (aMLV)) was over 10 µg/mL. The Neutralization by PGT-122, IC95 (aMLV envelope (aMLV)) was over 10 µg/mL, the Neutralization by PGT-122, IC50 [6] was over 10 µg/mL and the Neutralization by PGT-122, IC80 [6] was over 10 µg/mL. The Neutralization by PGT-122, IC90 [6] was over 10 µg/mL, the Neutralization by PGT-122, IC95 [6] was over 10 µg/mL and the Neutralization by PGT-122, IC50 [7] was 0.0138 µg/mL. It also gave a Neutralization by PGT-122, IC80 [7] of 0.0505 µg/mL, a Neutralization by PGT-122, IC90 [7] of 0.108 µg/mL and a Neutralization by PGT-122, IC95 [7] of 0.217 µg/mL.

In the case of 5123_A06 (PGT-125) (antibody), the Neutralization by PGT-125, IC50 [8] is reported as 0.0055 µg/mL, the Neutralization by PGT-125, IC80 [8] is reported as 0.024 µg/mL and the Neutralization by PGT-125, IC90 [8] is reported as 0.0575 µg/mL. It also gave a Neutralization by PGT-125, IC95 [8] of 0.131 µg/mL, a Neutralization by PGT-125, IC50 [9] of over 10 µg/mL and a Neutralization by PGT-125, IC80 [9] of over 10 µg/mL. The Neutralization by PGT-125, IC90 [9] was over 10 µg/mL, the Neutralization by PGT-125, IC95 [9] was over 10 µg/mL and the Neutralization by PGT-125, IC50 [10] was 2.31 µg/mL. It also gave a Neutralization by PGT-125, IC80 [10] of over 10 µg/mL, a Neutralization by PGT-125, IC90 [10] of over 10 µg/mL and a Neutralization by PGT-125, IC95 [10] of over 10 µg/mL. It also gave a Neutralization by PGT-125, IC50 [11] of 0.0156 µg/mL, a Neutralization by PGT-125, IC80 [11] of 0.0462 µg/mL and a Neutralization by PGT-125, IC90 [11] of 0.0873 µg/mL. For the same substance, the Neutralization by PGT-125, IC95 [11] was 0.157 µg/mL, the Neutralization by PGT-125, IC50 [12] was 0.0028 µg/mL and the Neutralization by PGT-125, IC80 [12] was 0.011 µg/mL. It also gave a Neutralization by PGT-125, IC90 [12] of 0.0248 µg/mL and a Neutralization by PGT-125, IC95 [12] of 0.0526 µg/mL.

1496_C09 (PG9) (TCN-109) (antibody) was tested, and the neutralization IC50 [13] was 0.687 µg/mL, the neutralization IC50 [14] was 0.31 µg/mL and the neutralization IC80 [14] was 1.95 µg/mL. For the same substance, the neutralization IC90 [14] was 5.54 µg/mL, the neutralization IC50 [15] was 0.161 µg/mL and the neutralization IC80 [15] was 1.04 µg/mL. It also gave a neutralization IC90 [15] of 3.4 µg/mL, a neutralization IC50 [16] of 0.214 µg/mL and a neutralization IC80 [16] of 1.13 µg/mL. For the same substance, the neutralization IC90 [16] was 3.21 µg/mL, the neutralization IC95 [16] was 9.65 µg/mL and the neutralization IC50 [17] was 0.121 µg/mL. It also gave a neutralization IC80 [17] of 0.645 µg/mL, a neutralization IC90 [17] of 1.65 µg/mL and a neutralization IC95 [17] of 3.71 µg/mL.

VRC01 (antibody) gave an IC50, pseudovirus neutralization [18] of 0.031 µg/mL, an IC50 [19] of 2.86 µg/mL and an IC50 [20] of 1.11 µg/mL.

1443_C16 (PG16) (TCN-116) (antibody) showed an IC50 (ug/ml), pseudovirus neutralization, TZM-bl assay [21] of 0.006 µg/mL, an IC50 (neutralization, TZM-bl pseudovirus assay) [22] of under 0.01 µg/mL and an IC50 (neutralization, TZM-bl pseudovirus assay) [23] of 6.37 µg/mL. It also gave an IC50 (neutralization, TZM-bl pseudovirus assay) [24] of under 0.01 µg/mL and an IC50 (neutralization, TZM-bl pseudovirus assay) [25] of 2.19 µg/mL.

With PGV04 (antibody) the IC50 (µg/mL), pseudovirus neutralization [26] was 1.56 µg/mL, the IC50, pseudovirus neutralization [27] was 0.244 µg/mL and the IC50 (µg/mL), pseudovirus neutralization [28] was 17.5 µg/mL. The IC50 (µg/mL), pseudovirus neutralization [29] was 0.258 µg/mL, the IC50 (µg/mL), pseudovirus neutralization [30] was 0.497 µg/mL and the IC50, pseudovirus neutralization [31] was 0.093 µg/mL.

Source: US20250320281A1
